{
  "source": "patent US20220306695A1",
  "about": "“COMPSTATIN ANALOGUES AND THEIR MEDICAL USES” (priority 2019, published 2022)",
  "binders": {"B1": {"name": "Compound 30 (peptide)", "peptide": "Ac-EGEICIWQDWGEHRCT-NH2", "modifications": "disulfide 5-15", "SMILES": "CC[C@H](C)[C@@H]1NC(=O)[C@@H](NC(=O)[C@@H](NC(=O)[C@H](CCC(=O)O)NC(=O)CNC(=O)[C@H](CCC(=O)O)NC(C)=O)[C@@H](C)CC)CSSC[C@@H](C(=O)N[C@H](C(N)=O)[C@@H](C)O)NC(=O)[C@H](CCCNC(=N)N)NC(=O)[C@H](Cc2c[nH]cn2)NC(=O)[C@H](CCC(=O)O)NC(=O)CNC(=O)[C@H](Cc2c[nH]c3ccccc23)NC(=O)[C@H](CC(=O)O)NC(=O)[C@H](CCC(N)=O)NC(=O)[C@H](Cc2c[nH]c3ccccc23)NC1=O"}, "B2": {"name": "Compound 39 (peptide)", "peptide": "Ac-ICIWQDWGEHRCTEGK-NH2", "modifications": "disulfide 2-12", "SMILES": "CC[C@H](C)[C@H](NC(C)=O)C(=O)N[C@H]1CSSC[C@@H](C(=O)N[C@H](C(=O)N[C@@H](CCC(=O)O)C(=O)NCC(=O)N[C@@H](CCCCN)C(N)=O)[C@@H](C)O)NC(=O)[C@H](CCCNC(=N)N)NC(=O)[C@H](Cc2c[nH]cn2)NC(=O)[C@H](CCC(=O)O)NC(=O)CNC(=O)[C@H](Cc2c[nH]c3ccccc23)NC(=O)[C@H](CC(=O)O)NC(=O)[C@H](CCC(N)=O)NC(=O)[C@H](Cc2c[nH]c3ccccc23)NC(=O)[C@H]([C@@H](C)CC)NC1=O"}, "B3": {"name": "Compound 38 (peptide)", "peptide": "Ac-EKGICIWQDWGEHRCTEKP-NH2", "modifications": "disulfide 5-15", "SMILES": "CC[C@H](C)[C@H](NC(=O)CNC(=O)[C@H](CCCCN)NC(=O)[C@H](CCC(=O)O)NC(C)=O)C(=O)N[C@H]1CSSC[C@@H](C(=O)N[C@H](C(=O)N[C@@H](CCC(=O)O)C(=O)N[C@@H](CCCCN)C(=O)N2CCC[C@H]2C(N)=O)[C@@H](C)O)NC(=O)[C@H](CCCNC(=N)N)NC(=O)[C@H](Cc2c[nH]cn2)NC(=O)[C@H](CCC(=O)O)NC(=O)CNC(=O)[C@H](Cc2c[nH]c3ccccc23)NC(=O)[C@H](CC(=O)O)NC(=O)[C@H](CCC(N)=O)NC(=O)[C@H](Cc2c[nH]c3ccccc23)NC(=O)[C@H]([C@@H](C)CC)NC1=O"}, "B4": {"name": "Compound 33 (peptide)", "peptide": "Ac-EICIWQDWGEHRCTE-NH2", "modifications": "disulfide 3-13", "SMILES": "CC[C@H](C)[C@@H]1NC(=O)[C@@H](NC(=O)[C@@H](NC(=O)[C@H](CCC(=O)O)NC(C)=O)[C@@H](C)CC)CSSC[C@@H](C(=O)N[C@H](C(=O)N[C@@H](CCC(=O)O)C(N)=O)[C@@H](C)O)NC(=O)[C@H](CCCNC(=N)N)NC(=O)[C@H](Cc2c[nH]cn2)NC(=O)[C@H](CCC(=O)O)NC(=O)CNC(=O)[C@H](Cc2c[nH]c3ccccc23)NC(=O)[C@H](CC(=O)O)NC(=O)[C@H](CCC(N)=O)NC(=O)[C@H](Cc2c[nH]c3ccccc23)NC1=O"}, "B5": {"name": "Compound 36 (peptide)", "peptide": "Ac-ESEICIWQDWGEHRCEGE-NH2", "modifications": "disulfide 5-15", "SMILES": "CC[C@H](C)[C@@H]1NC(=O)[C@@H](NC(=O)[C@@H](NC(=O)[C@H](CCC(=O)O)NC(=O)[C@H](CO)NC(=O)[C@H](CCC(=O)O)NC(C)=O)[C@@H](C)CC)CSSC[C@@H](C(=O)N[C@@H](CCC(=O)O)C(=O)NCC(=O)N[C@@H](CCC(=O)O)C(N)=O)NC(=O)[C@H](CCCNC(=N)N)NC(=O)[C@H](Cc2c[nH]cn2)NC(=O)[C@H](CCC(=O)O)NC(=O)CNC(=O)[C@H](Cc2c[nH]c3ccccc23)NC(=O)[C@H](CC(=O)O)NC(=O)[C@H](CCC(N)=O)NC(=O)[C@H](Cc2c[nH]c3ccccc23)NC1=O"}, "B6": {"name": "Compound 31 (peptide)", "peptide": "Ac-ESEICIWQDWGEHRCT-NH2", "modifications": "disulfide 5-15", "SMILES": "CC[C@H](C)[C@@H]1NC(=O)[C@@H](NC(=O)[C@@H](NC(=O)[C@H](CCC(=O)O)NC(=O)[C@H](CO)NC(=O)[C@H](CCC(=O)O)NC(C)=O)[C@@H](C)CC)CSSC[C@@H](C(=O)N[C@H](C(N)=O)[C@@H](C)O)NC(=O)[C@H](CCCNC(=N)N)NC(=O)[C@H](Cc2c[nH]cn2)NC(=O)[C@H](CCC(=O)O)NC(=O)CNC(=O)[C@H](Cc2c[nH]c3ccccc23)NC(=O)[C@H](CC(=O)O)NC(=O)[C@H](CCC(N)=O)NC(=O)[C@H](Cc2c[nH]c3ccccc23)NC1=O"}, "B7": {"name": "Compound 34 (peptide)", "peptide": "Ac-EICIWQDWGEHRCTEGE-NH2", "modifications": "disulfide 3-13", "SMILES": "CC[C@H](C)[C@@H]1NC(=O)[C@@H](NC(=O)[C@@H](NC(=O)[C@H](CCC(=O)O)NC(C)=O)[C@@H](C)CC)CSSC[C@@H](C(=O)N[C@H](C(=O)N[C@@H](CCC(=O)O)C(=O)NCC(=O)N[C@@H](CCC(=O)O)C(N)=O)[C@@H](C)O)NC(=O)[C@H](CCCNC(=N)N)NC(=O)[C@H](Cc2c[nH]cn2)NC(=O)[C@H](CCC(=O)O)NC(=O)CNC(=O)[C@H](Cc2c[nH]c3ccccc23)NC(=O)[C@H](CC(=O)O)NC(=O)[C@H](CCC(N)=O)NC(=O)[C@H](Cc2c[nH]c3ccccc23)NC1=O"}, "B8": {"name": "Compound 35 (peptide)", "peptide": "Ac-EGEICIWQDWGEHRCEGE-NH2", "modifications": "disulfide 5-15", "SMILES": "CC[C@H](C)[C@@H]1NC(=O)[C@@H](NC(=O)[C@@H](NC(=O)[C@H](CCC(=O)O)NC(=O)CNC(=O)[C@H](CCC(=O)O)NC(C)=O)[C@@H](C)CC)CSSC[C@@H](C(=O)N[C@@H](CCC(=O)O)C(=O)NCC(=O)N[C@@H](CCC(=O)O)C(N)=O)NC(=O)[C@H](CCCNC(=N)N)NC(=O)[C@H](Cc2c[nH]cn2)NC(=O)[C@H](CCC(=O)O)NC(=O)CNC(=O)[C@H](Cc2c[nH]c3ccccc23)NC(=O)[C@H](CC(=O)O)NC(=O)[C@H](CCC(N)=O)NC(=O)[C@H](Cc2c[nH]c3ccccc23)NC1=O"}, "B9": {"name": "Compound 26 (peptide)", "peptide": "Ac-ICIWQDWGEHRCTE-NH2", "modifications": "disulfide 2-12", "SMILES": "CC[C@H](C)[C@H](NC(C)=O)C(=O)N[C@H]1CSSC[C@@H](C(=O)N[C@H](C(=O)N[C@@H](CCC(=O)O)C(N)=O)[C@@H](C)O)NC(=O)[C@H](CCCNC(=N)N)NC(=O)[C@H](Cc2c[nH]cn2)NC(=O)[C@H](CCC(=O)O)NC(=O)CNC(=O)[C@H](Cc2c[nH]c3ccccc23)NC(=O)[C@H](CC(=O)O)NC(=O)[C@H](CCC(N)=O)NC(=O)[C@H](Cc2c[nH]c3ccccc23)NC(=O)[C@H]([C@@H](C)CC)NC1=O"}, "B10": {"name": "Compound 32 (peptide)", "peptide": "Ac-SEICIWQDWGEHRCTEA-NH2", "modifications": "disulfide 4-14", "SMILES": "CC[C@H](C)[C@@H]1NC(=O)[C@@H](NC(=O)[C@@H](NC(=O)[C@H](CCC(=O)O)NC(=O)[C@H](CO)NC(C)=O)[C@@H](C)CC)CSSC[C@@H](C(=O)N[C@H](C(=O)N[C@@H](CCC(=O)O)C(=O)N[C@@H](C)C(N)=O)[C@@H](C)O)NC(=O)[C@H](CCCNC(=N)N)NC(=O)[C@H](Cc2c[nH]cn2)NC(=O)[C@H](CCC(=O)O)NC(=O)CNC(=O)[C@H](Cc2c[nH]c3ccccc23)NC(=O)[C@H](CC(=O)O)NC(=O)[C@H](CCC(N)=O)NC(=O)[C@H](Cc2c[nH]c3ccccc23)NC1=O"}, "B11": {"name": "Compound 37 (peptide)", "peptide": "Ac-KEKICIWQDWGEHRCTEKE-NH2", "modifications": "disulfide 5-15", "SMILES": "CC[C@H](C)[C@@H]1NC(=O)[C@@H](NC(=O)[C@@H](NC(=O)[C@H](CCCCN)NC(=O)[C@H](CCC(=O)O)NC(=O)[C@H](CCCCN)NC(C)=O)[C@@H](C)CC)CSSC[C@@H](C(=O)N[C@H](C(=O)N[C@@H](CCC(=O)O)C(=O)N[C@@H](CCCCN)C(=O)N[C@@H](CCC(=O)O)C(N)=O)[C@@H](C)O)NC(=O)[C@H](CCCNC(=N)N)NC(=O)[C@H](Cc2c[nH]cn2)NC(=O)[C@H](CCC(=O)O)NC(=O)CNC(=O)[C@H](Cc2c[nH]c3ccccc23)NC(=O)[C@H](CC(=O)O)NC(=O)[C@H](CCC(N)=O)NC(=O)[C@H](Cc2c[nH]c3ccccc23)NC1=O"}, "B12": {"name": "Compound 25 (peptide)", "peptide": "Ac-ICIWQDWGEHRCTEA-NH2", "modifications": "disulfide 2-12", "SMILES": "CC[C@H](C)[C@H](NC(C)=O)C(=O)N[C@H]1CSSC[C@@H](C(=O)N[C@H](C(=O)N[C@@H](CCC(=O)O)C(=O)N[C@@H](C)C(N)=O)[C@@H](C)O)NC(=O)[C@H](CCCNC(=N)N)NC(=O)[C@H](Cc2c[nH]cn2)NC(=O)[C@H](CCC(=O)O)NC(=O)CNC(=O)[C@H](Cc2c[nH]c3ccccc23)NC(=O)[C@H](CC(=O)O)NC(=O)[C@H](CCC(N)=O)NC(=O)[C@H](Cc2c[nH]c3ccccc23)NC(=O)[C@H]([C@@H](C)CC)NC1=O"}, "B13": {"name": "Compound 27 (peptide)", "peptide": "Ac-ICIWQDWGEHRCEGE-NH2", "modifications": "disulfide 2-12", "SMILES": "CC[C@H](C)[C@H](NC(C)=O)C(=O)N[C@H]1CSSC[C@@H](C(=O)N[C@@H](CCC(=O)O)C(=O)NCC(=O)N[C@@H](CCC(=O)O)C(N)=O)NC(=O)[C@H](CCCNC(=N)N)NC(=O)[C@H](Cc2c[nH]cn2)NC(=O)[C@H](CCC(=O)O)NC(=O)CNC(=O)[C@H](Cc2c[nH]c3ccccc23)NC(=O)[C@H](CC(=O)O)NC(=O)[C@H](CCC(N)=O)NC(=O)[C@H](Cc2c[nH]c3ccccc23)NC(=O)[C@H]([C@@H](C)CC)NC1=O"}, "B14": {"name": "Compound 42 (peptide)", "peptide": "Ac-SAICIWQDWGEHRCTEG-NH2", "modifications": "disulfide 4-14", "SMILES": "CC[C@H](C)[C@H](NC(=O)[C@H](C)NC(=O)[C@H](CO)NC(C)=O)C(=O)N[C@H]1CSSC[C@@H](C(=O)N[C@H](C(=O)N[C@@H](CCC(=O)O)C(=O)NCC(N)=O)[C@@H](C)O)NC(=O)[C@H](CCCNC(=N)N)NC(=O)[C@H](Cc2c[nH]cn2)NC(=O)[C@H](CCC(=O)O)NC(=O)CNC(=O)[C@H](Cc2c[nH]c3ccccc23)NC(=O)[C@H](CC(=O)O)NC(=O)[C@H](CCC(N)=O)NC(=O)[C@H](Cc2c[nH]c3ccccc23)NC(=O)[C@H]([C@@H](C)CC)NC1=O"}},
  "note": "Positions of bridges follow the written chain, without caps; N, C: chain ends.",
  "data": [
    {"biological_target": "Human C3 (human, UniProt P01024 23-1663)", "sequence (P01024 23-1663 limits assumed)": "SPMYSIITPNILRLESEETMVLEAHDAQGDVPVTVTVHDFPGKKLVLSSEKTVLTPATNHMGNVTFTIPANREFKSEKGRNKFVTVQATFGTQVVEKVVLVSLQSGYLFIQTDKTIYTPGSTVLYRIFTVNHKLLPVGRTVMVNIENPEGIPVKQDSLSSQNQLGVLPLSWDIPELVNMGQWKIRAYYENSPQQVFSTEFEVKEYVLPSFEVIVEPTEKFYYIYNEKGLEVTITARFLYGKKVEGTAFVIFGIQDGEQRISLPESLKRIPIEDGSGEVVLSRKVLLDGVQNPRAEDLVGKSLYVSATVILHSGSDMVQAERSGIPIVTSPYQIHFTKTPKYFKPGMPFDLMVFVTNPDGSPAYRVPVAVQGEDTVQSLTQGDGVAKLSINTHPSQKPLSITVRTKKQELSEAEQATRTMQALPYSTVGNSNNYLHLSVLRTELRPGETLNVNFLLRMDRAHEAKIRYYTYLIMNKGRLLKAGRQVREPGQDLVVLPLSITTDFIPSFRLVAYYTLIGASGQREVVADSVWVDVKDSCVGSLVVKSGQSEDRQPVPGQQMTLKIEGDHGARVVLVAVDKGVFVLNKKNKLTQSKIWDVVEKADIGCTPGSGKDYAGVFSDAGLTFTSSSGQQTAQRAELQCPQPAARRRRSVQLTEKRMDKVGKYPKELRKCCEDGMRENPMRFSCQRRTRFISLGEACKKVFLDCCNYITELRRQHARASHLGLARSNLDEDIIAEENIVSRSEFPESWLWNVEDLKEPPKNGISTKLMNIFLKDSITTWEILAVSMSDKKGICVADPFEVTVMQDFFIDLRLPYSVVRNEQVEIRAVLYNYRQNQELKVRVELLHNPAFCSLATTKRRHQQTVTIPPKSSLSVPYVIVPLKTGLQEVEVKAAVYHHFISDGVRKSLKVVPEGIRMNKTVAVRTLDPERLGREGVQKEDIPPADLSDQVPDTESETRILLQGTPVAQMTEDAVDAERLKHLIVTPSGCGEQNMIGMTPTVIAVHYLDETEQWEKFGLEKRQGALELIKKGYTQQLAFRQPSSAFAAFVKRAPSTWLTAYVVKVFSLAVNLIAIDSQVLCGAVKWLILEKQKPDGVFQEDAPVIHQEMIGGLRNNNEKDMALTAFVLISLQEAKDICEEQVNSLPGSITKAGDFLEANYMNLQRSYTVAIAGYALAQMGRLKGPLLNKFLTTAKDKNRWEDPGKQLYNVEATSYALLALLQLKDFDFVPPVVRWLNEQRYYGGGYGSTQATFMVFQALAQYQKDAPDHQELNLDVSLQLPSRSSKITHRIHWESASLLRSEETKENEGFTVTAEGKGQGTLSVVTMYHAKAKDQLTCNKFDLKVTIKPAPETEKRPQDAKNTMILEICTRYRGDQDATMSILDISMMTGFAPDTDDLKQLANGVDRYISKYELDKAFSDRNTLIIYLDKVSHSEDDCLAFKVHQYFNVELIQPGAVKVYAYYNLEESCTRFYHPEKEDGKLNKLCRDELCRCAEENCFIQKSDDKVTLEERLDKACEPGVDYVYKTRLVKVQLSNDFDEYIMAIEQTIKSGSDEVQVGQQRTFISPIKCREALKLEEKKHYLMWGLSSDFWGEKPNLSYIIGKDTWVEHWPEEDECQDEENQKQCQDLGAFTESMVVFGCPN", "experiment": "cell-based or functional assay", "units": {"IC50[nM], inhibition of hemolysis": "nM"}, "values": [
      {"binder": "B1", "IC50[nM], inhibition of hemolysis": "< 100"},
      {"binder": "B2", "IC50[nM], inhibition of hemolysis": "< 100"},
      {"binder": "B3", "IC50[nM], inhibition of hemolysis": "< 250"},
      {"binder": "B4", "IC50[nM], inhibition of hemolysis": "< 100"},
      {"binder": "B5", "IC50[nM], inhibition of hemolysis": "< 250"},
      {"binder": "B6", "IC50[nM], inhibition of hemolysis": "< 100"},
      {"binder": "B7", "IC50[nM], inhibition of hemolysis": "< 250"},
      {"binder": "B8", "IC50[nM], inhibition of hemolysis": "< 500"},
      {"binder": "B9", "IC50[nM], inhibition of hemolysis": "< 100"},
      {"binder": "B10", "IC50[nM], inhibition of hemolysis": "< 100"},
      {"binder": "B11", "IC50[nM], inhibition of hemolysis": "< 250"},
      {"binder": "B12", "IC50[nM], inhibition of hemolysis": "< 100"},
      {"binder": "B13", "IC50[nM], inhibition of hemolysis": "< 100"},
      {"binder": "B14", "IC50[nM], inhibition of hemolysis": "< 250"}
    ]}
  ]
}
